According to patent US20060239998A1:

Legend:
[1] = molecular target: polyclonal antibodies of the patient from whom BO2C11 was derived; test: cell-based or functional assay
[2] = molecular target: human monoclonal antibody BO2C11, FVIII-specific IgG4kappa inhibitory antibody against the C2 domain; test: cell-based or functional assay
[3] = molecular target: polyclonal antibodies of 6 unrelated patients with haemophilia A and inhibitor towards the C2 domain; test: immunoprecipitation of radiolabelled C2 domain with patient polyclonal antibodies and protein A Sepharose; Ab 14C12 added at increasing concentration
[4] = molecular target: BO2C11 surface antibody on the BO2C11 lymphoblastoid B-cell line; test: flow cytometry on the BO2C11 lymphoblastoid cell line, 1 or 10 µg/ml antibody, anti-mouse IgG-FITC
[5] = molecular target: human monoclonal antibody BO2C11, FVIII-specific IgG4kappa inhibitory antibody against the C2 domain; test: surface plasmon resonance
[6] = molecular target: Factor VIII (human recombinant FVIII) (human) (UniProt P00451); test: cell-based or functional assay
Chain of Factor VIII (human recombinant FVIII) (human) (P00451 20-2351): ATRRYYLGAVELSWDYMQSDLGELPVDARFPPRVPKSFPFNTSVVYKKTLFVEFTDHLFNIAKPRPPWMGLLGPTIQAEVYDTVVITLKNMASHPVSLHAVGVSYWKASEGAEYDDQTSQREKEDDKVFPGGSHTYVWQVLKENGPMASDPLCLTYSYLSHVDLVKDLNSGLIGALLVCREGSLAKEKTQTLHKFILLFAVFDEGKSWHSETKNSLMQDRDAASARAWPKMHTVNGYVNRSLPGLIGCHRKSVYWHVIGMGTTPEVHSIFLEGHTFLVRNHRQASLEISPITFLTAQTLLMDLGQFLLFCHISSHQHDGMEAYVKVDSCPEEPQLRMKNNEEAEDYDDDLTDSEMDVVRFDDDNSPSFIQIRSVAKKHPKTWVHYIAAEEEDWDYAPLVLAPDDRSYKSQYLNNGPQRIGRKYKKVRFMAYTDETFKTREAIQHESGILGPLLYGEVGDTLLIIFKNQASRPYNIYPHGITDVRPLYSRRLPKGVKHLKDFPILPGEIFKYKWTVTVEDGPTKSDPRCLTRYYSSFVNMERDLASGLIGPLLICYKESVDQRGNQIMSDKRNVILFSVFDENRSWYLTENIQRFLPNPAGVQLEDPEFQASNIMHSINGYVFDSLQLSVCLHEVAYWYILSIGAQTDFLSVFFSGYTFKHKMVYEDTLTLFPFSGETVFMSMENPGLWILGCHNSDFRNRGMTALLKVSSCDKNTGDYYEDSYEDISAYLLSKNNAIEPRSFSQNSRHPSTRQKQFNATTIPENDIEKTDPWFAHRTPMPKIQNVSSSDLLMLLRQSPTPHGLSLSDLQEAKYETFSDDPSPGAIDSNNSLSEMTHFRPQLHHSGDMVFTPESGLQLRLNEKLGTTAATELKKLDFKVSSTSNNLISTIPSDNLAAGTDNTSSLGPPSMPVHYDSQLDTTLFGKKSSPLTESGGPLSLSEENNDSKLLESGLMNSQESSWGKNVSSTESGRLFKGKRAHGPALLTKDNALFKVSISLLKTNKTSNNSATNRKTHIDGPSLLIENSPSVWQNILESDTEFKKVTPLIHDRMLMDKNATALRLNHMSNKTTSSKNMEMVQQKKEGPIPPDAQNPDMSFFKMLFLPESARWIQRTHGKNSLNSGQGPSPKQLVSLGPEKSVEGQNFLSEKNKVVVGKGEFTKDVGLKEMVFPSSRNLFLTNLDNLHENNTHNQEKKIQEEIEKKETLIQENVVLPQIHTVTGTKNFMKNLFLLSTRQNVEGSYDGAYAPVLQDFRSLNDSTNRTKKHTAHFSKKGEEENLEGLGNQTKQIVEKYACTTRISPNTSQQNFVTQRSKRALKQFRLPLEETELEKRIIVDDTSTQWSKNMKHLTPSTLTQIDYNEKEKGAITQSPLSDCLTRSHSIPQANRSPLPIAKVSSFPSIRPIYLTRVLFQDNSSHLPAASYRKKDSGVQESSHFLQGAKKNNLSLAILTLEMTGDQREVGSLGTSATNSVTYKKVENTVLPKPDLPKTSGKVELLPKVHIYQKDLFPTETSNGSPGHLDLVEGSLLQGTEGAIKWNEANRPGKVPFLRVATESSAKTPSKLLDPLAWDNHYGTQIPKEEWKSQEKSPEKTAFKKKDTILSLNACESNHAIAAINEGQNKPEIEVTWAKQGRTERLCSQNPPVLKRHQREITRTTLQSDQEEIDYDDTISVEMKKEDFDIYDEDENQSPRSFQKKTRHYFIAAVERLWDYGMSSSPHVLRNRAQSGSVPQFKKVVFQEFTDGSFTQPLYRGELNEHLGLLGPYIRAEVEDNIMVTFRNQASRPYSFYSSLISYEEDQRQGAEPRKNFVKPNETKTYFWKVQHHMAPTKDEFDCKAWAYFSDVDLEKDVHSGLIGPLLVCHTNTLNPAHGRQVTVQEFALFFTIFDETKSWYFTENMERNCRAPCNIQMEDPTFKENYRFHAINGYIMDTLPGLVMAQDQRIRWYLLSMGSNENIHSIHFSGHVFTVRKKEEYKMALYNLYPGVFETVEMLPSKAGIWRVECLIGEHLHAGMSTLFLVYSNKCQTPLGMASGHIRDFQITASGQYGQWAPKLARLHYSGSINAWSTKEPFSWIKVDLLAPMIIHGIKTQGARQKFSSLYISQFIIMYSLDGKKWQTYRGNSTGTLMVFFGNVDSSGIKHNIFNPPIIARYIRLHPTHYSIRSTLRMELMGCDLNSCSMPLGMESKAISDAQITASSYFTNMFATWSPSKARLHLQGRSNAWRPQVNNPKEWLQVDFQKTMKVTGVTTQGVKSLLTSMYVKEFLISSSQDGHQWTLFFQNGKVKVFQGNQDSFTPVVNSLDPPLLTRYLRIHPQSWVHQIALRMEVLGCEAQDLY

B1: anti-idiotypic antibody Ab 14C12 obtained from cell line 14C12 (LMBP 5878CB) (antibody, V domains shown)
VH: EVQLQQSGPELVKPGASVKLSCKASGYTFTSSVMHWLKQKSGQGLEWIGYINPYNDGTKYNEKFTAKATLTSDKSSSTVYMELSGLTSEDFAVYYCARSGGLLRGYWYFDVWGAGTTVTVSSAKTTAPSVYPLVPGC
VL: DLVLTQSPATLSVTPGDSVSLSCRASQDITNTLHWYHQKSHESPRLLIKYVSQSISGIPSRFSGSGSGTVFTLSINSVETEDFGVYFCQQSTSWPYTFGGGTKLEIKRADAAPTVSIFPPSSE
neutralisation of polyclonal anti-FVIII antibodies (chromogenic assay) (% neutralisation) [1]: < 60

B2: anti-idiotypic antibody Ab 14C12 obtained from cell line 14C12 (LMBP 5878CB) (antibody, V domains shown)
VH: EVQLQQSGPELVKPGASVKLSCKASGYTFTSSVMHWLKQKSGQGLEWIGYINPYNDGTKYNEKFTAKATLTSDKSSSTVYMELSGLTSEDFAVYYCARSGGLLRGYWYFDVWGAGTTVTVSS
VL: DLVLTQSPATLSVTPGDSVSLSCRASQDITNTLHWYHQKSHESPRLLIKYVSQSISGIPSRFSGSGSGTVFTLSINSVETEDFGVYFCQQSTSWPYTFGGGTKLEIKR
in vivo neutralisation of BO2C11-mediated FVIII inhibition in FVIII-/- mice (% neutralisation at equimolar ratio) [2]: 50
neutralisation of BO2C11 inhibitory capacity (chromogenic assay) ([2]; scale: % neutralisation at a '11' molar ratio): 50
in vivo neutralisation of BO2C11-mediated FVIII inhibition in FVIII-/- mice ([2]; scale: molar excess of Ab 14C12 over BO2C11 for full neutralisation): 3.5
percent neutralisation [3]: 50%
percent of cells positive [4]: 68%
koff [5]: 1e-05 s⁻¹

B3: human monoclonal antibody BO2C11, FVIII-specific IgG4kappa inhibitory antibody against the C2 domain (antibody, from another filing, V domains shown)
VH: QVQLVQSGAEVKKPGASVKVSCKVSGYTLTELPVHWVRQAPGKGLEWVGSFDPESGESIYAREFQGSVTMTADTSTDIAYMELSSLRSDDTAVYYCAVPDPDAFDIWGQGTMVTVSS
VL: EIALTQSPGTLSLSPGERATLSCRASQSFSSSYLAWYQQKPGQAPRLLIYGASTRATGIPDRFSGSGSGTDFTLTISRLEPEDFAVYYCQKYGTSAITFGQGTRLEIK
inhibition of FVIII procoagulant activity in FVIII-/- mice (% inhibition at 0.5 µg BO2C11) [6]: 98
inhibition of FVIII-dependent substrate conversion (Faktor VIII chromogen test) (% inhibition at 0.1 µg/ml BO2C11) [6]: 100
